Like-named read-outs stand apart in the source and are kept apart here. No end group written: not given here. *: point of attachment. Biotin = O=C1N[C@H]2[C@H](CS[C@H]2CCCCC(=O)*)N1; Ahx = NCCCCCC(=O)O

What all share (assay): ELISA
For orientation: In an ELISA, binding on a coated surface is turned into a signal by an enzyme label.

Assay [1] addresses T1, HLA-DR (DRA1*01:01 / DRB1*12:01), soluble knob-into-hole Fc heterodimer (human).
In assay [2] the target is T2, HLA-DR (DRA1*01:01 / DRB1*07:01), soluble knob-into-hole Fc heterodimer (human).
Assay [3] addresses HLA-DR (DRA1*01:01 / DRB1*01:01), soluble knob-into-hole Fc heterodimer (human).
The target in assay [4] is HLA-DR (DRA1*01:01 / DRB1*15:01), soluble knob-into-hole Fc heterodimer (human).
Assay [5] deals with HLA-DR (DRA1*01:01 / DRB1*04:05), soluble knob-into-hole Fc heterodimer (human).
Assay [6] concerns the target HLA-DR (DRA1*01:01 / DRB1*10:01), soluble knob-into-hole Fc heterodimer (human).
Assay [7] has as its target HLA-DR (DRA1*01:01 / DRB1*04:01), soluble knob-into-hole Fc heterodimer (human).
Assay [8] concerns the target T2, HLA-DR (DRA1*01:01 / DRB1*07:01), …. This is another data set of the same source.
The target in assay [9] is HLA-DR (DRA1*01:01 / DRB1*15:02), soluble knob-into-hole Fc heterodimer (human).
Assay [10] has as its target HLA-DR (DRA1*01:01 / DRB1*14:01), soluble knob-into-hole Fc heterodimer (human).
Assay [11] addresses T1, HLA-DR (DRA1*01:01 / DRB1*12:01), …. The source holds these as a separate data set.
For assay [12], the target named is HLA-DR (DRA1*01:01 / DRB1*12:02), soluble knob-into-hole Fc heterodimer (human).
Assay [13] concerns the target HLA-DR (DRA1*01:01 / DRB1*04:03), soluble knob-into-hole Fc heterodimer (human).
For assay [14], the target named is HLA-DR (DRA1*01:01 / DRB1*04:07), soluble knob-into-hole Fc heterodimer (human).
The target of assay [15] is HLA-DR (DRA1*01:01 / DRB1*04:06), soluble knob-into-hole Fc heterodimer (human).
The target in assay [16] is HLA-DR (DRA1*01:01 / DRB1*16:02), soluble knob-into-hole Fc heterodimer (human).
Assay [17] deals with HLA-DR (DRA1*01:01 / DRB1*09:01), soluble knob-into-hole Fc heterodimer (human).
The target of assay [18] is HLA-DR (DRA1*01:01 / DRB1*01:02), soluble knob-into-hole Fc heterodimer (human).
Assay [19] deals with HLA-DR (DRA1*01:01 / DRB1*04:04), soluble knob-into-hole Fc heterodimer (human).
In assay [20] the target is HLA-DR (DRA1*01:01 / DRB1*13:02), soluble knob-into-hole Fc heterodimer (human).
Assay [21] has as its target HLA-DR (DRA1*01:01 / DRB1*03:01), soluble knob-into-hole Fc heterodimer (human).
Assay [22] concerns the target HLA-DR (DRA1*01:01 / DRB1*15:03), soluble knob-into-hole Fc heterodimer (human).
The target of assay [23] is HLA-DR (DRA1*01:01 / DRB1*14:54), soluble knob-into-hole Fc heterodimer (human).
Assay [24] concerns the target HLA-DR (DRA1*01:01 / DRB1*11:04), soluble knob-into-hole Fc heterodimer (human).
Assay [25] concerns the target HLA-DR (DRA1*01:01 / DRB1*13:01), soluble knob-into-hole Fc heterodimer (human).
Assay [26] deals with HLA-DR (DRA1*01:01 / DRB1*11:01), soluble knob-into-hole Fc heterodimer (human).

Take VVLSFELLHAPATVC [SARS-CoV-2 RBD peptide RBD511-525]: the dissociation constant (Kd) came out at 631 nM in assay [1] and 263 nM in assay [2].

For {Biotin-Ahx}-KPVSKMRMATPLLMQALPM, the Kd in assay [3] worked out at 1.83 nM; in [4], 2.13 nM; in [5], 14.9 nM; in assay [6], 1.27 nM; in [7], 2.35 nM; in assay [8], 4.09 nM. The Kd in assay [9] amounted to 8.75 nM.

For the molecule VEGFNCYFPLQSYGF [SARS-CoV-2 RBD peptide RBD483-497], the figures for the Kd in [1] and in [2] were 439 nM and 173 nM, respectively.

As to TESIVRFPNITNLCP [SARS-CoV-2 RBD peptide RBD323-337], the Kd in assay [1] came out at 4930 nM; in assay [2], 435 nM.

Take ADYNYKLPDDFTGCV [SARS-CoV-2 RBD peptide RBD419-433]: the dissociation constant (Kd) in assay [1] and in assay [2] was greater than 10000 nM each time.

As for GNYNYLYRLFRKSNL [SARS-CoV-2 RBD peptide RBD447-461, wildtype strain], the Kd in assay [1] turned out to be 229 nM; in assay [2], 163 nM.

As for KPVSKMRMATPLLMQALPM (also: biotin-labeled), the Kd in assay [10] was 9.17 nM; in assay [11] it was 22.9 nM; in [12] it was 1.27 nM; in assay [13], 2.32 nM; in [14], 2.76 nM; in assay [15] it was 2.63 nM. The Kd in [16] is 8.67 nM; in assay [17] it was 0.576 nM; in assay [18] it was 1.78 nM; in [19], 2.7 nM; in assay [20], 4.13 µM; in [21] it was 15.1 nM. The Kd in assay [22] came out at 5.31 nM; in assay [23], 3.35 nM; in assay [24] it was 4.54 nM; in assay [25], 315 nM; in [26], 12 nM.

As usually defined, the Kd is a measure of binding affinity in units of concentration.

(Values after publication doi:10.1101/2025.06.05.658000 (2025).)
